Drawing on article PMC2819980, this text covers Km, kcat and kcat/Km for one protein.

Substrate in the data set: NCCCP(=O)(O)OP(=O)(O)OC[C@H]1O[C@@H](n2ccc(N)nc2=O)[C@H](O)[C@@H]1O
Kind of data set: steady-state kinetics. In kind it is biochemical, Streptomyces rubellomurinus.

B1: FrbG (Streptomyces rubellomurinus) (protein)
chain: MTHYATVICGGGPAGVSAVVAAAVQGRLEEFLDRGVLLVEATGRAGSGSIPHYGIRANSLGSAFLECLDGPAGSGLLAGLADSAEARELRGWADEYPPLPVVGAFLTLVGERVVDALRRHPRCDALLGHRVVEVRTGPERATVLLSGPDGELSHTGDRVLLTMGGRERTELAPDALAALVERRPGLRVLSSGEVITDPSWHPDAASPHRALGSIAVLGGAHSAWAVAAHLARLARAGWFAGPVEVTVVERRLPPIFYFSAAEARAEGYRWDEADVCGPSGRVHRFGGLRGPARELARQVMGLAAEKAPDGFGQVVLDGPWTAEALEAAVGDADLVITALGYDARLPRLLGADGRELELARPRGAVDTGRDGLPGLAAGGRAERLVMYGLGAGLVPSEETGGEPGYRGRLDGVWVYQHDIGAVILRALLANDRTEDGR
As a reminder, the Km is the concentration of substrate that gives half-maximal velocity. As a reminder, the kcat is the maximal rate divided by the concentration of active sites. As a reminder, the kcat/Km is the second-order rate constant that governs catalysis at low substrate concentration. Regarding B1, the Km was determined as 15.1 ± 1.5 µM, the kcat was 0.0987 ± 0.00633 s⁻¹ and the kcat/Km came to 6520 M⁻¹ s⁻¹.
